Results from US20250145697A1 (WASHINGTON UNIVERSITY, published 2025).

How the values were obtained:
[1] = target: T1, recombinant alipidated human ApoE2 (human, UniProt P02649 19-317); experiment: ELISA: untreated ApoE2 coated at 0.5 ug/ml, antibody titrated, HRP goat anti-mouse IgG, OD650
T1 construct: mature; full length recombinant protein made in E. coli or bought
Experimental: The aggregated ApoE was induced by incubating ApoE at 1 mg/ml concentration at 40° C. for 24 hours. The aggregates then were recovered in the pellet fraction following ultracentrifugation at 186,000 g for 1 hour. For ELISA, the untreated ApoE or heat-induced aggregates of ApoE were coated directly to ELISA plates at 0.5 μg/ml overnight at 4° C. After three washes with PBS, the wells were blocked with 1% BSA-PBS for 1 hour at room temperature with shaking at 500 rpm. The blocked wells were washed once with PBS and subsequently loaded with antibodies at serial concentrations (starting at 100 nM with 5-fold dilutions thereafter). Bound antibodies were detected with HRP-labeled goat anti-mouse IgG (Jackson Immunoresearch) and visualized with TMB substrate at OD₆₅₀ (reaction stopped with BioFX stop solution).
Target sequence in this assay (P02649 19-317 R176C): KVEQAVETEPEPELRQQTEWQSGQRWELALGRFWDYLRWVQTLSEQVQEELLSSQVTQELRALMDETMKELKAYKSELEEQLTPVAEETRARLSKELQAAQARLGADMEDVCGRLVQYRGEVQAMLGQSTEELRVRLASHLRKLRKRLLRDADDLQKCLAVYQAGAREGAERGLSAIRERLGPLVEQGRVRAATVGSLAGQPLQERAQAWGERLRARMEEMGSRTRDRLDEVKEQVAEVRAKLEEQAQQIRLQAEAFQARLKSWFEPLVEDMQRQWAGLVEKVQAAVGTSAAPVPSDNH

murine ApoE = target: T2, murine ApoE (mouse, UniProt P08226 19-311); experiment: Western blot of mouse brain lysates
T2 sequence (looked up): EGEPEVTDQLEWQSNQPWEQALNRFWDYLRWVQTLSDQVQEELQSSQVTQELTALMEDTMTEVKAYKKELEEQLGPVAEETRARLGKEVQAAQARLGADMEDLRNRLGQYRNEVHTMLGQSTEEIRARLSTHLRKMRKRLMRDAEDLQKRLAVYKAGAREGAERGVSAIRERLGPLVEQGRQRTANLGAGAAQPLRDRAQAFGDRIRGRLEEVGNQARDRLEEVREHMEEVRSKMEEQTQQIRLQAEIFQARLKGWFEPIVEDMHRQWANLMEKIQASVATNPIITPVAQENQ
Text: Brain lysates from apoE KO mice or mice expressing human apoE3, human apoE4 or murine apoE were immunoblotted with HJ151, HJ152, HJ153, and HJ154. A commercial apoE antibody GA-50 was used as a positive control.

[2] = target: T1, recombinant alipidated human ApoE2; experiment: ELISA, plate coated with 0.5 ug/ml recombinant apoE2, HRP goat anti-mouse detection, OD450
Experimental: ELISA plates were coated with 0.5 μg/ml of recombinant apoE2 (square), apoE3 (open circle), or apoE4 (closed circle). Then different concentrations of (A) HJ151, (B) HJ153, (C) HJ154, or (D) HJ156 were loaded on the plates. Horse-radish peroxidase labeled goat anti-mouse secondary antibodies were used to detect binding. […] HJ151 is specific for ApoE4 and HJ156 binds only ApoE3 and ApoE4. FIG. 5E-H are graphs depicting surface plasmon resonance profiles for various antibodies. Anti-ApoE antibodies were serially diluted 3-fold (starting at 100 nM for HJ153 (E), and 1000 nM for HJ151 (F), and […] (G)) for detection of binding to biotinylated-recombinant apoE4 captured on a streptavidin chip. Samples were injected at a flow rate of 30 μl/minute. (H) Apparent KD values of HJ151, HJ153 and HJ156 were calculated based on the SPR experiment.
ELISA plates were coated with 0.5 μg/ml of recombinant apoE2, apoE3, or apoE4. Then different concentrations of HJ151 (FIG. 5A), HJ153 (FIG. 5B), HJ154 (FIG. 5C), or HJ156 (FIG. 5D) were loaded on the plates. Horse-radish peroxidase labeled goat anti-mouse secondary antibodies were used to detect binding. […] HJ151 is specific for ApoE4 and HJ156 binds only ApoE3 and ApoE4. Surface plasmon resonance profiles for various antibodies was also performed.

- EC50 (read off the curve) [1]: ~0.2 nM
- binding result (murine ApoE): no binding
- EC50 (read off the curve) [2]: ~0.3 nM
B1: HJ154 (antibody, V domains shown)
VH: QVQLQQPGTEFVMSGASVMLSCKASGYIFTNYWLHWVKQRPGHGLEWIGEIDPSDSYSICNDNFKGKSTLTVDKSSSTAYMQLSSLTSEDSAVYYCAGSLGRVGLAYWGQGTLVTVST
VL: QIVLTQSPAIMSASPGEKVTMSCSASSSVSNMYWYQQKPGSSPKSWIYRTSNLASGVPARFSGSGSGTSYSLTISNMEAEDAATYYCQHYQNYPLTFGAGTKLELKR
notes: murine monoclonal antibody from hybridoma; also called HJ154B (biotinylated)
